The values below come from US20250388694A1 (BOOSTIMMUNE, published 2025).

Assay [1] concerns the target T1, Human TCTP (translationally controlled tumor protein) (human, UniProt P13693 1-172).
T1 construct: also called HRF; Tpt1
T1 sequence: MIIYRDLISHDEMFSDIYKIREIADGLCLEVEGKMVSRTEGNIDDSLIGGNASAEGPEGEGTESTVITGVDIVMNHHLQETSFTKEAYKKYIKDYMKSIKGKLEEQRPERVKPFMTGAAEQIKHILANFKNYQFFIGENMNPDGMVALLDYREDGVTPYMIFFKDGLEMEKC
Briefly: SPR, Biacore 8K, human TCTP immobilised on CM5 chip, antibody as analyte, 1:1 model. The procedure:
The antigen binding capacity of antibodies selected in Example 1 was analyzed using a SPR technique. The device used was Biacore 8K (Ge Healthcare). Human TCTP was immobilized on a chip, and antibodies were shed at 6 or 7 different concentrations. A CM5 chip (GE Healthcare, Cat. 29-1275-56), a regeneration buffer (10 mM glycine-HCl (GE Healthcare)), and a driving buffer HBS-EP+, and the like were used. For kinetic analysis, the binding time was set to 100 or 120 seconds, the flow rate was set to 30 or 50 μl/min in the binding phase, and in the dissociation phase, the dissociation time was set to 300 or 360 seconds, and the flow rate was set to 30 or 50 μl/min. The fitting was carried out using a 1:1 combined model, and BIACore Evaluation Software (GE healthcare) was used as the evaluation software.
Background: In SPR one partner is held on a chip, and binding of the other changes the refractive index at the surface.

Assay [2] deals with T1, Human TCTP (translationally controlled …). Briefly: competition ELISA: human TCTP coated at 1 µg/ml, 150 nM TLR2 plus titrated antibody, bound TLR2 detected; % inhibition of TLR2-TCTP binding. For orientation: An ELISA detects its analyte on a solid surface through an enzyme-linked reagent.
A further assay deals with T2, mouse TCTP (mouse, UniProt P63028 1-172).
T2 sequence (looked up): T1 sequence with M13L, N42A, I67V, I99L, R107K, K130N, Y159F
Put plainly: ELISA on mouse TCTP, binder titrated as scFv (axis [scFv] Log(nM)), OD450 [panel Mouse TCTP].

Assay [3] addresses T1, Human TCTP (translationally controlled …). Put plainly: ELISA on human TCTP, binder titrated as scFv (axis [scFv] Log(nM)), OD450 [panel Human TCTP].
For assay [4] the target is unchanged. Briefly: ELISA, human TCTP coated at 1 µg/ml, antibody titrated, OD 450 nm. Here is the method:
ELISA was carried out to quantitatively analyze the binding capacity of selected antibodies to antigens. To this end, human TCTP was attached to an ELISA plate at a concentration of 1 μg/ml and then treated with antibodies of various concentrations to check the relative binding capacity. As a result of the measurement, all of antibodies Ab1, Ab2, Ab3, Ab4, Ab5, Ab6, Ab7, Ab8, Ab9, Ab12, Ab13, Ab14, Ab15, Ab17, Ab18, Ab19, Ab20, Ab21, and Ab22 were confirmed to bind well to human TCTP (FIGS. 1a and 1b).

Residue numbers refer to the chain shown, from its start.

B1: Ab19 (antibody, V domains shown)
VH: QVQLQQSGPGLVKPSQTLSLTCAISGDSVSSSSAAWNWIRQSPSRGLEWLGRTYYRSKWYNDYAESVKSRITINPDTSKNQFSLQLNSVTPEDTAVYYCARRLTIVRGVMRGGMDVWGQGTTVTVSS
VL: DIVMTQSPDSLAVSLDERATINCKSSQNLLYSANNKDYLAWYQQKPGQPPKLLIYWASTRYSGIPDRFSGSGSGTDFTLTISSLQAEDVAVYYCQQYYSTPWTFGQGTKVEIK
notes: also called antibody Ab19
On to B1, for which the Kd (as a rule, the constant that tells how readily two partners part at equilibrium) in assay [1] came out at 2.77 nM. That is a single-digit nanomolar value.

B2: Ab20 (antibody, V domains shown)
VH: B1 VH with Y54F, P75A
VL: B1 VL with A12T, V13G, L39I, P49S, T59I, I64V, Y98F
notes: also called antibody Ab20
In the case of B2, the Kd in assay [1] was determined as 0.704 nM. For the same molecule, the “IC50 (read off the curve)” value in assay [2] is around 10 nM.

B3: Ab12 (antibody, V domains shown)
VH: QVQLVQSGAEVKKPGASVKVSCKASGYTFTSHAVHWVRQAPGQRLEWMGWINAGKGNTKYSQKFQGRVTITRDTSATTAYMELSSLRSEDTAVYYCARGRAVAFDPWGQGTLVTVSS
VL: RSALTQPPSASGSPGQSVTVSCTGTNSDIGGYNYVSWYKQHPGNAPKLMIYEVNKRPSGVPDRFSGSKSGNTASLTVSGLQTEDEADYYCASYAGDNNLVFGGGTKLTVL
notes: also called antibody Ab12
The molecule B3 came in with a Kd in assay [1] of 0.168 nM. Besides, the “IC50 (read off the curve)” value in assay [2] is around 10 nM.

B4: Ab10-1 (antibody, V domains shown)
VH: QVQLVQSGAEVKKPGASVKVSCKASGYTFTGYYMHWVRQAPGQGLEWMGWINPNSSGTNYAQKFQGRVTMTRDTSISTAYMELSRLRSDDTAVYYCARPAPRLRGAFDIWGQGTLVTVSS
VL: QSVVTQPPSVSAAPGQKVTISCSGSSSNIGNKKVSWYQQLPVTAPKLLIYDDNKRPSGIPDRFSGSKSGTSATLGITGLQTGDEADYYCATWDSSLRAVVFGGGTKLTVL
notes: Single-residue CDR mutant of Ab10; also called antibody Ab10-1; mutant of Ab10
For the molecule B4, in the assay with mouse TCTP, the binding result is recorded as “binds”. The EC50 (read off the curve) (usually the concentration giving half of the maximal effect) in assay [3] is around 8 nM.

B5: Ab10-4 (antibody, V domains shown)
VH: not shown
VL: B4 VL
notes: Single-residue CDR mutant of Ab10; also called antibody Ab10-4; mutant of Ab10
As to B5, the binding result (with mouse TCTP; in assay [3]) was “binds” in each case.

B6: Ab10-7 (antibody, V domains shown)
VH: not shown
VL: B4 VL with K32F
notes: Single-residue CDR mutant of Ab10; also called antibody Ab10-7; mutant of Ab10
As to B6, the binding result with mouse TCTP was “binds”. In assay [3], the “EC50 (read off the curve)” value was around 20 nM.

B7: Ab10-9 (antibody, V domains shown)
VH: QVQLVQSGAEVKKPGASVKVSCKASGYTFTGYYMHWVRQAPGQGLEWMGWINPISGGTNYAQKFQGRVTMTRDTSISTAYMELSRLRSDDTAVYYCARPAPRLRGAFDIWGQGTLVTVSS
VL: B4 VL
notes: Mutant of Ab10 made to prevent post-translational modification; also called antibody Ab10-9; mutant of Ab10
With B7, the binding result (with mouse TCTP; in assay [3]) was “binds” throughout.

B8: Ab10-2 (antibody, V domains shown)
VH: not shown
VL: B4 VL
notes: Single-residue CDR mutant of Ab10; also called antibody Ab10-2; mutant of Ab10
Regarding B8, the binding result (with mouse TCTP; in assay [3]) was “binds” each time.

B9: Ab10-8 (antibody, V domains shown)
VH: not shown
VL: B4 VL with A90V
notes: Single-residue CDR mutant of Ab10; also called antibody Ab10-8; mutant of Ab10
As to B9, the binding result (with mouse TCTP; in assay [3]) was “binds” throughout.

B10: Ab10-6 (antibody, V domains shown)
VH: not shown
VL: B4 VL with N31T
notes: Single-residue CDR mutant of Ab10; also called antibody Ab10-6; mutant of Ab10
Take B10: the “EC50 (read off the curve)” value in the assay with mouse TCTP is around 9 nM; in assay [3], around 1 nM.

B11: Ab10-3 (antibody, V domains shown)
VH: not shown
VL: B4 VL
notes: Single-residue CDR mutant of Ab10; also called antibody Ab10-3; mutant of Ab10
Regarding B11, the “EC50 (read off the curve)” value in the assay with mouse TCTP is around 5 nM. Moreover, the “IC50 (read off the curve)” value in assay [2] was around 20 nM.

B12: Ab10-5 (antibody, V domains shown)
VH: not shown
VL: B4 VL
notes: Single-residue CDR mutant of Ab10; also called antibody Ab10-5; mutant of Ab10
With B12, the binding result (in the assay with mouse TCTP; in assay [3]) was “binds” each time.

B13: Ab10-10 (antibody, V domains shown)
VH: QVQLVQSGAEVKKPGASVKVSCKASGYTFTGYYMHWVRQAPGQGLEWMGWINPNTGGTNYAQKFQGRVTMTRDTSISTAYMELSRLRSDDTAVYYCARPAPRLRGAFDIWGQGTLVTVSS
VL: B4 VL
notes: Mutant of Ab10 made to prevent post-translational modification; also called antibody Ab10-10; mutant of Ab10
In the case of B13, the binding result (with mouse TCTP; in assay [3]) was “binds” each time.

B14: Ab18 (antibody, V domains shown)
VH: QVQLQQSGPGLVKPSQTLSLTCAISGDSVSSNSAAWNWIRQSPSRGLEWLGRTYYRSKWYNDYAVSVKSRITINPDTSKNQFSLQLNSVTPEDTAVYYCARGGAAVFDYWGQGTLVTVSS
VL: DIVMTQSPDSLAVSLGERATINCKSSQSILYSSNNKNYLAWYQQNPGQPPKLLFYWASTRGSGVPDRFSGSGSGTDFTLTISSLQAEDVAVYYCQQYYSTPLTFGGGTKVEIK
notes: also called antibody Ab18
For B14, the binding result in assay [4] is recorded as “binds”.

B15: Ab17 (antibody, V domains shown)
VH: B14 VH with R56K, I71M, A104S
VL: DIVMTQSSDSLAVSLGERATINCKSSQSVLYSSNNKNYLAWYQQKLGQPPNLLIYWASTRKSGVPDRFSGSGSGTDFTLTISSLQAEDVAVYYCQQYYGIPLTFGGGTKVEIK
notes: also called antibody Ab17
The molecule B15 showed a Kd in assay [1] of 1.23 nM.

B16: Ab13 (antibody, V domains shown)
VH: B14 VH
VL: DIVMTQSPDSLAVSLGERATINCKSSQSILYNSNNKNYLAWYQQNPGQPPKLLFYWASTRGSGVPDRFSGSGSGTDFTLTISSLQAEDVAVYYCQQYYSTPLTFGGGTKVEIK
notes: also called antibody Ab13
B16: the “EC50 (read off the curve)” value in assay [4] is around 10 ng/mL.

B17: Ab4 (antibody, V domains shown)
VH: QVQLVQSGAEVKKPGASVKVSCKASGYTFTSNAMHWVRQAPGQRLEWMGWINAGNGNTKYSQKFQGRVTITRDTSASTAYMELSSLRSEDTAVYYCARGYYDILTGYYTTDAFDIWGQGTMVTVSS
VL: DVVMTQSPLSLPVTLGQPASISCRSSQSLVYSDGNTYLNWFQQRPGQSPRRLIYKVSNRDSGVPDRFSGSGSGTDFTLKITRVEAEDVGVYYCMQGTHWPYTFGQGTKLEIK
notes: From Beacon screening; also called antibody Ab4
B17: the binding result in assay [4] is “binds”.

B18: Ab14 (antibody, V domains shown)
VH: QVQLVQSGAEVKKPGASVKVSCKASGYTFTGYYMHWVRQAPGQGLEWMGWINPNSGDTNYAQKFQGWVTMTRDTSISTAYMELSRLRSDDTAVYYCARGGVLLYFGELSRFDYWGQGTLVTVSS
VL: QSALTQPPSASGSPGQSVAISCTGTSSDVGGYNYVSWYQQHPGKAPQLLIYEVTKRPSGVPDRFSGSKSGNTASLTVSGLQAEDEADYYCASYAGDNNLVFGGGTKLTVL
notes: also called antibody Ab14
With B18, the binding result in assay [4] was “binds”.

B19: Ab15 (antibody, V domains shown)
VH: QVQLVQSGAEVKKPGASVKLSCKAAGYTFTVNAMHWVRQAPGQGLEWMGWINAGTGKTKYSQKFQGRLTITRDTSASTAYMHLSGLRSEDTAVYYCARGRAVAFDPWGQGTLVTVSS
VL: B18 VL with A19T, N33D, G43D, Q47K, L49M, T54N, A91N, D96N
notes: also called antibody Ab15
On to B19, for which the binding result in assay [4] is reported as “binds”.

B20: Ab6 (antibody, V domains shown)
VH: QVQLQESGPGLVKPSGTLSLTCAVSGGSISSSNWWSWVRQPPGKGLEWIGEIDHSGTTTYNPSLKSRVTMSVDQSKNQFSLKLSSVTAADTAVYYCARDGSGSYEGYWGQGTLVTVSS
VL: DIQMTQSPSSLSASVGDRVTITCRASQAISNHLAWFQQKPGKAPKSLIYAASSLQSGVPSKFSGSGSGTDFTLTISSLQPEDFATYYCQQYHSYPITFGQGTRLEIK
notes: From Beacon screening; also called antibody Ab6
For B20, in assay [1], binding was characterised by a dissociation constant (Kd) of 72.8 nM.

B21: Ab7 (antibody, V domains shown)
VH: QVQLQESGPGLVKPSETLSLTCAVSGGSISSSNWWSWVRQPPGKGLEWIGEIYHGVTTYNPSLKSRVTISVDNSKNQFSLKLSSVTAADTAVYYCARDGSGSYEGYWGQGTLVTVSS
VL: B20 VL with A28D, H32Y, S93Y
notes: From Beacon screening; also called antibody Ab7
The molecule B21 showed a Kd in assay [1] of 107 nM.

B22: Ab5 (antibody, V domains shown)
VH: QVQLVQSGAEVKKPGASVKVSCKASGYIFISYAMHWVRQAPGQRLEWMGWINAGNGYTEYSQKFQGRVTITRDTSALTAYMELRSLRSEDTAVYYCARRGYFDWWAFDYWGQGTLVTVSS
VL: EIVLTQSPDFQSVTPKEKVTITCRASQSIGSSLHWYQQKPDQSPKLLIKYASQSFSGVPSRFSGSGSGTDFTLTINSLEAEDAATYYCHQSSSLPQTFGQGTKVEIK
notes: From Beacon screening; also called antibody Ab5
Regarding B22, the binding result in assay [4] was “binds”.

B23: Ab9 (antibody, V domains shown)
VH: QVQLQQSGPGLVKPSQTLSLTCAISGDSVSSNSAAWNWIRQSPSRGLEWLGRTYYRSKWYNDYAVSVKSRITINPDTSKNQFSLQLNSVTPEDTAVYYCAREGITVGRGVMLYFDLWGRGTLVTVSS
VL: DVLMTQSPLSLPVTLGQPASISCRSSQSLVYSDGNTHLKWFQQRPGQSPRRLIYKVSKWDSGVPDRVSGSGSGTDFTLKISRVEAEDVGVYYCMQGTHWPPTFGQGTKVEIK
notes: From Beacon screening; also called antibody Ab9
On to B23, for which, in assay [4], the binding result was “binds”.
